Assay results: the supplement of paper PMC9112550, “Optimization of the antimicrobial peptide Bac7 by deep mutational scanning” (BMC Biology, 2022)

Tested on: Escherichia coli TOP10
Experiment: shrunken log2 fold change of peptide-encoding DNA abundance (4.5 h post-induction vs induction); higher = less antimicrobial activity (less host growth inhibition)
Details: time post-induction: 4.5 h; library: site-saturation at positions 5, 18, 19, 20
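Also: peptides expressed intracellularly from a pBAD plasmid library in pooled LB shake-flask culture, induced with 0.3% L-arabinose, DNA abundance read by NGS, three biological replicates, DESeq2 with apeglm shrinkage.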

| Sequence | shrunken log2 fold change |
| --- | --- |
| RRIRSRPPRLPRPRPRPKPGPRP | 0.283 |
| RRIRSRPPRLPRPRPRPKPIPRP | 0.271 |
| RRIRSRPPRLPRPRPRPKPKPRP | 0.545 |
| RRIRSRPPRLPRPRPRPKPVPRP | 0.0648 |
| RRIRSRPPRLPRPRPRPKPWPRP | 0.463 |
| RRIRSRPPRLPRPRPRPKQFPRP | 0.26 |
| RRIRSRPPRLPRPRPRPKSCPRP | 0.61 |
| RRIRSRPPRLPRPRPRPKTPPRP | 0.405 |
| RRIRSRPPRLPRPRPRPKTRPRP | 0.156 |
| RRIRSRPPRLPRPRPRPKTVPRP | 0.0369 |
| RRIRSRPPRLPRPRPRPKTWPRP | -0.0488 |
| RRIRSRPPRLPRPRPRPKYNPRP | -0.62 |
| RRIRSRPPRLPRPRPRPKYVPRP | -0.527 |
| RRIRSRPPRLPRPRPRPLCKPRP | -0.137 |
| RRIRSRPPRLPRPRPRPLDQPRP | -0.0226 |
| RRIRSRPPRLPRPRPRPLEPPRP | -0.132 |
| RRIRSRPPRLPRPRPRPLFIPRP | -0.74 |
| RRIRSRPPRLPRPRPRPLFYPRP | -0.413 |
| RRIRSRPPRLPRPRPRPLHRPRP | -0.216 |
| RRIRSRPPRLPRPRPRPLHWPRP | 0.197 |
| RRIRSRPPRLPRPRPRPLHYPRP | -0.908 |
| RRIRSRPPRLPRPRPRPLICPRP | -0.221 |
| RRIRSRPPRLPRPRPRPLIWPRP | 0.312 |
| RRIRSRPPRLPRPRPRPLKEPRP | 0.176 |
| RRIRSRPPRLPRPRPRPLLAPRP | 0.602 |

| Sequence | shrunken log2 fold change |
| --- | --- |
| RRIRSRPPRLPRPRPRPLLFPRP | -0.129 |
| RRIRSRPPRLPRPRPRPLLVPRP | 0.0795 |
| RRIRSRPPRLPRPRPRPLMAPRP | 0.000235 |
| RRIRSRPPRLPRPRPRPLMDPRP | -0.00235 |
| RRIRSRPPRLPRPRPRPLMEPRP | -0.0249 |
| RRIRSRPPRLPRPRPRPLPAPRP | 0.494 |
| RRIRSRPPRLPRPRPRPLPHPRP | 0.277 |
| RRIRSRPPRLPRPRPRPLPMPRP | 0.256 |
| RRIRSRPPRLPRPRPRPLPTPRP | 0.446 |
| RRIRSRPPRLPRPRPRPLSVPRP | -0.0334 |
| RRIRSRPPRLPRPRPRPLTPPRP | 0.166 |
| RRIRSRPPRLPRPRPRPLTSPRP | 1.55 |
| RRIRSRPPRLPRPRPRPLTTPRP | -0.127 |
| RRIRSRPPRLPRPRPRPLVNPRP | -0.138 |
| RRIRSRPPRLPRPRPRPLWEPRP | -0.0343 |
| RRIRSRPPRLPRPRPRPLWQPRP | 0.311 |
| RRIRSRPPRLPRPRPRPMAVPRP | -0.000652 |
| RRIRSRPPRLPRPRPRPMDGPRP | -0.095 |
| RRIRSRPPRLPRPRPRPMEKPRP | -0.0205 |
| RRIRSRPPRLPRPRPRPMEVPRP | -0.00803 |
| RRIRSRPPRLPRPRPRPMGAPRP | 0.188 |
| RRIRSRPPRLPRPRPRPMGLPRP | 0.101 |
| RRIRSRPPRLPRPRPRPMHTPRP | -0.139 |
| RRIRSRPPRLPRPRPRPMIMPRP | -0.0825 |
| RRIRSRPPRLPRPRPRPMMGPRP | 0.0137 |

| Sequence | shrunken log2 fold change |
| --- | --- |
| RRIRSRPPRLPRPRPRPMPCPRP | 0.216 |
| RRIRSRPPRLPRPRPRPMPFPRP | -0.0591 |
| RRIRSRPPRLPRPRPRPMSKPRP | -0.032 |
| RRIRSRPPRLPRPRPRPMVLPRP | 0.114 |
| RRIRSRPPRLPRPRPRPMVVPRP | 0.149 |
| RRIRSRPPRLPRPRPRPMWTPRP | -0.0682 |
| RRIRSRPPRLPRPRPRPNAHPRP | -0.184 |
| RRIRSRPPRLPRPRPRPNAPPRP | 0.0774 |
| RRIRSRPPRLPRPRPRPNAQPRP | 0.0609 |
| RRIRSRPPRLPRPRPRPNCAPRP | -0.172 |
| RRIRSRPPRLPRPRPRPNCCPRP | -0.105 |
| RRIRSRPPRLPRPRPRPNDKPRP | -0.553 |
| RRIRSRPPRLPRPRPRPNDQPRP | -0.102 |
| RRIRSRPPRLPRPRPRPNELPRP | -0.295 |
| RRIRSRPPRLPRPRPRPNESPRP | -0.153 |
| RRIRSRPPRLPRPRPRPNFRPRP | -0.113 |
| RRIRSRPPRLPRPRPRPNGFPRP | -0.0748 |
| RRIRSRPPRLPRPRPRPNGRPRP | -0.0415 |
| RRIRSRPPRLPRPRPRPNGTPRP | -0.188 |
| RRIRSRPPRLPRPRPRPNINPRP | -0.612 |
| RRIRSRPPRLPRPRPRPNIWPRP | -0.0665 |
| RRIRSRPPRLPRPRPRPNLAPRP | -0.14 |
| RRIRSRPPRLPRPRPRPNMVPRP | -0.0658 |
| RRIRSRPPRLPRPRPRPNNHPRP | -0.276 |
| RRIRSRPPRLPRPRPRPNPFPRP | -0.236 |
